Like-named read-outs stand apart in the source and are kept apart here.
How the values were obtained:
[1] = Conjugate characterization: protein and linker/payload concentrations, payload loading (UV, MALDI-TOF, SEC-HPLC, RP-HPLC); format: physicochemical; conditions: Anti-PRLR-SMCC-DM1 conjugates; Table 9
Source text: Selected anti-PRLR antibodies were conjugated to the maytansinoid DM1 through an SMCC linker using methods similar to those set forth in U.S. Pat. No. 5,208,020 and US Patent Application Publication No. 2010/0129314, the disclosures of which are incorporated by reference herein in their entireties. The conjugates were purified by size exclusion chromatography and sterile filtered. All starting materials and solvents were purchased commercially and used without purification, unless otherwise noted.
Protein and linker/payload concentrations were determined by UV spectral analysis and MALDI-TOF mass spectrometry. Size-exclusion HPLC established that all conjugates used were >95% monomeric, and RP-HPLC established that there was <0.5% unconjugated linker payload. Yields are reported in Table 8 and 9 based on protein. All conjugated antibodies were analyzed by UV for linker payload loading values according to Hamblett et al, 2004, Clinical Cancer Research 10(20):7063-7070, and by mass difference, native versus conjugated.

[2] = test system: MCF7/hPRLR (MCF7/PRLR) cells; assay: Cell viability (cell kill) assay, nuclear counts; format: cell-based, human
Source text: (§1) PRLR-overexpressing cells, including HEK293, PC3, MCF7 and NCI-N87, were generated to assess the ability of anti-PRLR conjugated antibodies to reduce cell viability. For comparative purposes, PC3 and T47D cells with overexpressed ErbB2 were also generated, as well as an MCF7 cell line over-expressing both hPRLR and hErbB2. Briefly, Lipofectamine® 2000-mediated transfection methodology was utilized to generate HEK293 cells expressing human PRLR (HEK293/hPRLR) or human ErbB2 (HEK293/hErbB2). Lipofectamine LTX with Plus Reagent was used to generate PC3 cells expressing human PRLR (PC3/hPRLR) or human ErbB2 (PC3/hErbB2). Lentiviral-mediated transduction was utilized to generate MCF7 cells expressing human PRLR (MCF7/hPRLR), NCI-N87 cells expressing human PRLR (NCI-N87/hPRLR), T47D cells over-expressing human ErbB2 (T47D/hErbB2), and MCF7 cells expressing both human PRLR and human ErbB2 (MCF7/hPRLR/hErbB2). All lines were selected for at least two weeks in complete growth media plus appropriate selection reagents. Stably expressing populations were enriched for PRLR expression via FACS using the anti PRLR antibody Control I.
(§2) Next, the ability of anti-PRLR-DM1 antibody-drug conjugates (i.e., anti-PRLR antibodies conjugated to DM1 via a non-cleavable linker [SMCC]) to reduce cell viability was determined using in vitro cell based assays. Cells were seeded in PDL-coated 96 well plates at 1500 to 10000 cells per well in complete growth media and allowed to grow overnight. For cell viability curves, ADCs or free DM1 (as the methyl disulfide derivative DM1-SMe) were added to the cells at final concentrations ranging from 500 nM to 5 pM and incubated for 3 days. The 293, PC3 and T47D cells were incubated with CCK8 (Dojindo, Rockville, Md.) for the final 1-3 hours and the absorbance at 450 nm (OD450) was determined on a Flexstation3 (Molecular Devices, Sunnyvale, Calif.). MCF7 cells were treated with Hoechst 33342 nuclear stain while being fixed with 4% formaldehyde. Images were acquired on the ImageXpress micro XL (Molecular Devices, Sunnyvale, Calif.) and nuclear counts were determined via Columbus image analysis software (Perkin Elmer, Shelton, Conn.). Background OD450 values (PC3, 293, and T47D) or nuclear counts (MCF7) from digitonin (40 nM) treated cells was subtracted from all wells and viability was expressed as a percentage of the untreated controls. IC50 values were determined from a four-parameter logistic equation over a 10-point response curve (GraphPad Prism).
(§3) Finally, the potency of anti-PRLR antibodies conjugated to DM1 via the non-cleavable linker SMCC was compared to the cell killing potency of anti-PRLR antibodies conjugated to MMAE via the cleavable linker: mc-vc-PAB (available from Concortis, San Diego, Calif.). Cells used in this experiment were PC3, PC3/hPRLR, MCF7/ATCC and MCF7/PRLR.
(§4) Additional toxins (DM4, MeNHC3-May, and MMD) conjugated to anti-PRLR antibodies were also tested in T47D and MCF7/hPRLR cell lines, and results are summarized in Tables 19 (293 and T47D cell killing) and 20 (MCF7/ATCC and MCF7/PRLR cell killing). (ND=not detected).

MCF7 (MCF7/ATCC) cells = assay: Cell viability (cell kill) assay, nuclear counts; format: cell-based
Source text: as §1, §2, §3, §4

T47D cells = assay: Cell viability (cell kill) assay; format: cell-based; conditions: T47D; for IC50: read-out: IC50
Experimental: as §2
Additionally, the impact of the PRLR ligand, PRL, on PRLR-SMCC-DM1 cell kill in T47D cells was assessed. T47D cells were incubated simultaneously with PRL (15 nM) and either a non-blocking anti PRLR antibody (H1H6782P) or a receptor blocking antibody (H1H6958N2).
as §4

PC3/hPRLR cells = assay: Cell viability (cell kill) assay; format: cell-based, human
Source text: as §1, §2, §3

PC3 cells = assay: Cell viability (cell kill) assay; format: cell-based
Source text: as §1, §2, §3

HEK293 (293) cells = assay: Cell viability (cell kill) assay; format: cell-based; conditions: 293
Source text: as §1, §2

Row | Molecule | Payload:Antibody Molar Ratio (MS) [1] | % Kill ([2]; Table 18) | IC50 ([2]; Table 18) | % Kill ([2]; Table 20) | IC50 ([2]; Table 20) | % Kill (MCF7 (MCF7/ATCC) cells; MCF7/ATCC, Table 18) | IC50 (MCF7 (MCF7/ATCC) cells; MCF7/ATCC, Table 18) | % Kill (MCF7 (MCF7/ATCC) cells; MCF7/ATCC, Table 20) | IC50 (MCF7 (MCF7/ATCC) cells; MCF7/ATCC, Table 20) | % Kill (T47D cells; Table 19) | IC50 (T47D cells; Table 19) | % Kill (PC3/hPRLR cells; PC3/hPRLR, Table 18) | % Kill ([2]; Table 12, 3 days) | IC50 ([2]; Table 12, 3 days) | % Kill (MCF7 (MCF7/ATCC) cells; MCF7, Table 12, 3 days) | IC50 (MCF7 (MCF7/ATCC) cells; MCF7, Table 12, 3 days) | % Kill (T47D cells; Table 12, 3 days) | IC50 (T47D cells; Table 12, 3 days) | % Kill (PC3/hPRLR cells; PC3/PRLR, Table 11, 3 days) | IC50 (PC3/hPRLR cells; PC3/PRLR, Table 11, 3 days) | also measured
1 | H1H6975P-DM1 (conjugate) VH: EVHLVESGGGLVQPGGSLRLSCAASGFTFSSYEMNWVRQTPGKGLEWISHISSRSVIIYYADSVKGRFTISRDNAKNSLFLQMNSLRAEDTAVYFCAGITIFGIPEYWGQGTLVTVSS VL: EIVLTQSPATLSLSPGERATLSCRASQSVSSYFAWYQQKPGQAPRLLIYDASSRATGIPTRFSGSGSGTDFTLTISSLEPEDFAVYYCQQRSSWPITFGQGTRLEIK | 3.4 | – | – | – | – | – | – | – | – | – | – | – | – | – | – | – | – | – | – | – | Payload:Antibody Molar Ratio (UV) [1]: 3.0
2 | H1H6958N2-mc-VC-PAB-MMAE (conjugate) VH: QVQLVESGGGVVQPGRSLRLSCGASGFTFRNYGMQWVRQGPGKGLEWVTLISFDGNDKYYADSVKGRFTISRDNSKNTLFLQMNSLRTEDTAVYYCARGGDFDYWGQGTLVTVSS VL: DIQMTQSPSSLSASVGDRVTITCRASQDIRKDLGWYQQKPGKAPKRLIYAASSLHSGVPSRFSGSGSGTEFTLTISSLQPEDFATYYCLQHNSYPMYTFGQGTKLEIK | – | 88% | 0.2 nM | 90% | 0.2 nM | 53% | 150 nM | 50% | 150 nM | 90% | 1 nM | 82% | – | – | – | – | – | – | – | – | IC50 (PC3/hPRLR cells; PC3/hPRLR, Table 18): 0.5 nM; IC50 (PC3 cells; Table 18): 100 nM
3 | H1H6803P-DM1 (conjugate) VH: EVQLVESGGGVVRPGGSLRLSCAASGFKFDDYGMTWVRHVPGKGLEWVSGINWNGGRTGYTDSVKGRFTISRDNAKNSLYLQMNSLRAEDTALYHCAGARRDAFDIWGQGTMVTVSS VL: DIQMTQSPSSLSASIGDRVTITCRASQNIIKYLNWYQQNAGKAPKLLIYTASSLQSGVPSRFSGSGSGTDFTLTISSLQPEDFATYYCQQSSSSPYTFGQGTKLEIK | 3.1 | – | – | – | – | – | – | – | – | – | – | – | 84% | 0.44 nM | 60% | 150 nM | 77% | 8.61 nM | 70% | 2.32 nM | IC50 (PC3 cells; Table 11, 3 days): 150 nM
4 | H1H6762P-DM1 (conjugate) VH: QVQLVESGGGVVQPGRSLRLSCAASGFTFSHYGMVWVRQPPGKGLEWVALISFDGTTKYYADSVKGRFTISRDNSKNTLYLQMNSLRAEDTAVYFCVGAIAAAAFDLWGRGTLVTVSS VL: EIVMTQSPATLSVSPGERATLSCRASQSVSSDLAWYQQKPGQAPRLLIYSASARATGIPARFTGSGSGTDFTLTISSLQSEDFAVYYCQQYNNWPMYTFGQGTKLEIK | 2.9 | – | – | – | – | – | – | – | – | – | – | – | 83% | 0.46 nM | 64% | 110 nM | 80% | 12.6 nM | 66% | 0.98 nM | IC50 (HEK293 (293) cells; Table 11, 3 days): 100 nM
5 | H1H6953N-SMCC-DM1 (conjugate) VH: EVQLLESGGGLVQPGGTLRLSCAASGFTFSAYAMSWVRQAPGKGLEWVSSINVRAGDTYYADSVKGRFTISRDNSKNTLFLLMNSLRAEDTAAYYCAKARYSSNWGFDFWGQGTLVTVSS VL: DIVMTQSPDSLTVSLGARTTINCQSSQTILHSSNNHNYLAWYQQKPGLPPKLLIYWSSTRESGVPDRFSGSGSGTDFTLTISSLQAEDVAIYYCQQYSNTPYTFGQGTKLEIN | – | 80% | 0.1 nM | 80% | 0.3 nM | 70% | 80 nM | 70% | 90 nM | 100% | 1.5 nM | 83% | – | – | – | – | – | – | – | – | IC50 (PC3/hPRLR cells; PC3/hPRLR, Table 18): 0.4 nM; IC50 (PC3 cells; Table 18): 90 nM; % Kill (HEK293 (293) cells; Table 19): 90%; IC50 (HEK293 (293) cells; Table 19): 100 nM
6 | H1H6765P-mc-VC-PAB-MMAE (conjugate) VH: EVQLVESGGGVVRPGGSLRLSCVGSGFSFDDHGMNWVRQGPGKGLEWVSGFNWNGGSTNYAESVKGRFTISRDNARNSLFLQMNSLRAEDTALYYCVRGRSGWFNDAFDVWGPGTMVTVSS VL: EIVLTQSPGTLSLSPGERATLSCRASQTINSNYLAWYRQKPGQTPRLLIYGTSSRATGIPDRFSGSGSGTDFSLTISRLEPEDFAVFYCQQYAGLPTFGPGTKVDIK | – | 86% | 0.2 nM | 90% | 0.2 nM | 38% | 150 nM | 40% | 150 nM | 90% | 1 nM | 85% | – | – | – | – | – | – | – | – | IC50 (PC3/hPRLR cells; PC3/hPRLR, Table 18): 0.4 nM; IC50 (PC3 cells; Table 18): 150 nM
7 | H1H6800P-DM1 (conjugate) VH: EVQLVESGGGLVQPGRSLRLSCAASGFTFDGYAMHWVRQGPGKGLEWVSGISWYSDTLGYADSVKGRFTISRDNAKNSLYLQMNSLRTEDTAFYYCAKISSSGWAFDYWGQGTLVTVSS VL: EIVLTQSPGTLSLSPGERATLSCRASHSVSSAYLAWYQQKPGQTPRLLIYGTSSRATGIPDRFSGSGSGTDFTLTISRLEPEDFAVYYCQQYGSSPLFTFGPGTKVDIK | 3.2 | – | – | – | – | – | – | – | – | – | – | – | 85% | 0.4 nM | 65% | 150 nM | 79% | 3.2 nM | 68% | 1.37 nM | IC50 (PC3 cells; Table 11, 3 days): 150 nM; % Kill (HEK293 (293) cells; Table 11, 3 days): 85%; IC50 (HEK293 (293) cells; Table 11, 3 days): 150 nM; Payload:Antibody Molar Ratio (UV) [1]: 3.0
8 | H1H6793P-DM1 (conjugate) VH: EVQLVESGGGLVQPGGSLRLSCAASGFSFSIYAMSWFRQAPGKGLEWVSAINGRGDGTHYADSVKGRFTISRDNSKTTLYLQMSSLRAEDTAVYYCAKPVMSTNGFDIWGQGTMVTVSS VL: DIQMTQSPSTLSASVGDRVTITCRASQSISSWLAWYQLKPGKAPKLLIYKASNLESGVPSRFSGSGSGTEFTLTISSLQPDDFATYYCQQYNIYWTFGQGTKVEIK | 3.8 | – | – | – | – | – | – | – | – | – | – | – | 87% | 0.54 nM | 67% | 125 nM | 53% | 11.1 nM | 65% | 3.65 nM | –
